# Molecular target: cyAbrB1 (Sll0359), N-terminally 6*His-tagged recombinant protein (Synechocystis sp. PCC 6803)
# Assay: native gel or EMSA
substance,measurement,value
"cyAbrB1 (Sll0359), N-terminally 6*His-tagged recombinant protein (natural protein)",stoichiometry N,2

# — doi:10.1101/2021.11.17.468837
